In publication PMC2719696, “Kinetics and Cellular Site of Glycolipid Loading Control the Outcome of Natural Killer T Cell Activation” (Immunity, 2009):

How the values were obtained:
BALB/c splenocytes = assay: Mouse splenocyte stimulation with glycolipids, IL-4, IL-13 and IFN-γ in supernatants; format: cell-based; conditions: 48 hr
Source text: (§1) Figure 1 Synthetic Analogs of αGalCer (A) Structures and nomenclature of iNKT cell-activating αGalCer analogs used in this study. The nomenclature used in most cases is based on the identity of the amide-linked acyl group in the ceramide moiety. Acyl carbon chain length and number of unsaturations are indicated by the names of most analogs, with exceptions being OCH (which has a C24 saturated acyl chain) and the compounds with amide-linked prostaglandin B1 (PGB1) or 4-fluorophenyl acetate (4FPA) groups. The phytosphingosine base is 18 carbons in length for all analogs except OCH, which has a nine-carbon base. (B) Hybridoma DN3A4.1-2 (Vβ8.2^+) was stimulated with each of the αGalCer analogs at a range of concentrations with JAWS II cells as APCs, and the amounts of IL-2 production were analyzed. Potencies of glycolipids are shown as 1/EC50 (as defined in Figure S1). […] Concentrations of IFN-γ, IL-4, and IL-12p70 were determined in serum by capture ELISA. “ND” stands for not detected. […]
(§2) For in vitro stimulation, murine iNKT hybridomas at 5 × 10^4 cells/well in 96-well plates were stimulated with an equal number of either JAWS II cells or transfected A20 cells in complete medium with glycolipids for 12 hr at 37°C, and levels of murine IL-2 secretion were determined. […] Subsequently the levels of IL-4, IL-13, and IFN-γ in culture supernatants were quantified by capture ELISA. […]

iNKT cells = assay: In vivo activation of iNKT cells by i.p. glycolipid injection; serum cytokines by capture ELISA; conditions: C57BL/6 mice, i.p. 4 nmoles
Source text: as §1, §2

mCD1d = target: T1, mCD1d (Mus musculus, UniProt P11609); assay: In vitro CD1d loading assay with immobilized mCD1d, saposins or Triton X-100, DN32.D3 hybridoma IL-2 readout; format: biochemical; conditions: saposin 10 μg/ml, glycolipid αGalCer-C26:0
T1 sequence (P11609 22-305 limits assumed): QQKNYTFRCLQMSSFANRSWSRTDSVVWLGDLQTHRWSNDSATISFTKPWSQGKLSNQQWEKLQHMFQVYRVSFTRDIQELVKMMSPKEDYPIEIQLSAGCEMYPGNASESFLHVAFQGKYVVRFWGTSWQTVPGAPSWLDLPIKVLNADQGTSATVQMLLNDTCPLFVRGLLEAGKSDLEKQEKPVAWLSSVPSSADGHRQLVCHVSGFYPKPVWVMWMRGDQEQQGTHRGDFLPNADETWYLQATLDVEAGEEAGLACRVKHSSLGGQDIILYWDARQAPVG
T1 sequence (P01887 21-119 partner): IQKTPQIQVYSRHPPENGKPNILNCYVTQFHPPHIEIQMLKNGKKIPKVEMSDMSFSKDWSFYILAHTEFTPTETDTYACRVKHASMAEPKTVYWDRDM
Procedure: Figure 5 Lack of Detergent-like Cofactor Dependence of Th2 Cell-Type Cytokine-Biasing αGalCer Analogs (A) Glycolipids were incubated for 24 hr at 37°C with murine CD1d proteins in the absence (top row) or presence (bottom row) of 0.05% Triton X-100. The resulting complexes were assembled as tetramers and used for staining mouse iNKT hybridoma DN3A4.1-2. The dashed line histograms show background staining with unloaded tetramers, and the bold histograms show staining with glycolipid loaded tetramers. (B) The same analysis as in (A) except with human CD1d tetramers, which were also used for DN3A4.1-2 staining. (C) Glycolipids at various concentrations were incubated with immobilized mCD1d protein for 2 hr in pH 7.0 or pH 5.0 buffers with no additives (medium) or in the same buffers containing the indicated purified recombinant saposins (10 μg/ml) or Triton X-100 (0.05%). After washing, DN32.D3 iNKT hybridoma cells were added and supernatant concentrations of IL-2 were determined after an additional 14 hr of incubation. All results shown (A, B, and C) were representative of at least two independent experiments.
To extend these observations to a more physiological model, we tested the effects of purified recombinant saposin A, B, C, and D proteins on loading of αGalCer analogs.
Recombinant murine CD1d proteins at 4 μg/ml in 50 μl PBS were coated on the surfaces of microtiter plate wells for 2 hr at 37°C and then washed with PBS for removal of unbound proteins. Subsequently, various concentrations of glycolipids in 0.1 M sodium phosphate buffer (pH 7.0) or 0.1 M sodium citrate buffer (pH 5.0) containing 150 mM NaCl were incubated with or without 0.05% Triton X-100 or recombinant purified human saposins A, B, C, or D at 10 μg/ml for another 2 hr at 37°C. Saposins were produced and purified as described ([Yuan et al., 2007]). After extensive washing with PBS and media, 5 × 10^4 murine iNKT hybridoma DN32.D3 cells were added in 200 μl of complete medium and incubated at 37°C for 14 hr. Supernatants were analyzed for murine IL-2 by capture ELISA.

CCCCCCCCCCCCCCC(O)C(O)C(COC1OC(CO)C(O)C(O)C1O)NC(=O)Cc1ccc(F)cc1 (stereo not drawn) [αGalCer-4FPA]
Th2 cell-type cytokine bias (ratios of IL-13 or IL-4 to IFN-γ) (BALB/c splenocytes): pronounced Th2 cell-type biasing effect in vitro | activity in vivo (serum cytokines) (iNKT cells): minimal activity in vivo

B1: saposin D: recombinant purified human saposin D (protein, UniProt P07602 405-486, looked up)
Saposin-D: DGGFCEVCKKLVGYLDRNLEKNSTKQEILAALEKGCSFLPDPYQKQCDQFVAEYEPVLIEILVEVMDPSFVCLKIGACPSAH
modifications: Saposin-D
activity of purified saposin in enabling loading of αGalCer-C26:0 onto mCD1d (mCD1d): minimal or no activity

B2: Saposin B: recombinant purified human saposin B, lipid transfer protein (protein, UniProt P07602 195-273, looked up)
Saposin-B: GDVCQDCIQMVTDIQTAVRTNSTFVQALVEHVKEECDRLGPGMADICKNYISQYSEIAIQMMMHMQPKEICALVGFCDE
modifications: Saposin-B
notes: recombinant purified human saposin B, lipid transfer protein
activity of purified saposin in enabling loading of αGalCer-C26:0 onto mCD1d (mCD1d): strongly active

B3: saposin A: recombinant purified human saposin A (protein, UniProt P07602 60-142, looked up)
Saposin-A: SLPCDICKDVVTAAGDMLKDNATEEEILVYLEKTCDWLPKPNMSASCKEIVDSYLPVILDIIKGEMSRPGEVCSALNLCESLQ
modifications: Saposin-A
activity of purified saposin in enabling loading of αGalCer-C26:0 onto mCD1d (mCD1d): minimal or no activity

B4: saposin C: recombinant purified human saposin C (protein, UniProt P07602 311-390, looked up)
Saposin-C: SDVYCEVCEFLVKEVTKLIDNNKTEKEILDAFDKMCSKLPKSLSEECQEVVDTYGSSILSILLEEVSPELVCSMLHLCSG
modifications: Saposin-C
activity of purified saposin in enabling loading of αGalCer-C26:0 onto mCD1d (mCD1d): minimal or no activity
